Measurements taken from the supplement of paper PMC12764529.
± gives the half width of the 95% confidence interval.

Experiments:
[1] = folding stability dG unfold from trypsin proteolysis; higher = more stable
Summary of the method: (§1)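 Bayesian fitting of sequencing counts gave K50 for each design. Unfolding free energy followed by setting this against a sequence-predicted unfolded-state K50 and a shared folded-state K50, either per protease or with trypsin and chymotrypsin combined. The designs, under 80 residues and lacking cysteine, were digested in a PA-tagged cDNA display format at 11 threefold-diluted protease concentrations and without protease, and only those with AlphaFold2 dimer inter-PAE above 15 were kept.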

[2] = folding stability dG unfold from chymotrypsin proteolysis; higher = more stable
Summary of the method: as §1

[3] = folding stability dG unfold (combined trypsin and chymotrypsin); higher = more stable
Summary of the method: as §1

Row | Sequence | folding stability dG unfold [1] [kcal/mol] | folding stability dG unfold [2] [kcal/mol] | folding stability dG unfold [3] [kcal/mol]
1 | SAGGSAGGSMEEIIEEIKKKVPKDKYAEIEIEVPFPDGSKKKFKIKFYPETNEFEVEELEEIPSAGGSAGGS [r12_305_TrMRF] | 3.12 ± 0.26 | 4.12 ± 0.23 | 3.88 ± 0.24
2 | SAGGSAGGSMFEEEEIEIERPDGTTIKVKVEILPDGTRVLTITDPKEGKTTTVTLSPNEEILLSAGGSAGGS [r20_45_JUSTAS] | 2.15 ± 0.12 | 0.464 ± 0.049 | 1.6 ± 0.12
3 | SAGGSAGGSMHEDEQLPYEAAEKYTILKLKEENEKLNLPPIPIKKIEIEKDPETGLVRVKVYGSAGGSAGGS [r12_583_TrMRF] | -0.788 ± 0.42 | -0.579 ± 0.6 | -0.552 ± 0.39
4 | SAGGSAGGSMIEYPELTLEELKAKFEAEGYTVEEEPPTNVVTLTPPDGTPITVTVTPVPESLLSAGGSAGGS [r12_211_JUSTAS] | 1.21 ± 0.043 | 0.352 ± 0.013 | 0.803 ± 0.057
5 | SAGGSAGGSMIFFPNITKEEFEEIFRKKGYKVKRYPSTNVIEVTGKDGKPIKAVVIPVSPEEFSAGGSAGGS [r12_211_TrMRF] | 0.677 ± 0.058 | 0.618 ± 0.13 | 0.668 ± 0.088
6 | SAGGSAGGSMIKIKVKSKEDVEALIKELEKAGFKVKKVEEVDGKVYFTLENGEKIEIEVVPPESAGGSAGGS [r20_93_TrROS_Hall] | 4.24 ± 0.48 | 4.94 ± 0.12 | 5.05 ± 0.34
7 | SAGGSAGGSMIKVKITYPNGEEKTIEIEAETEEEAEEAAKKLAEELGKDVKVEVEKVSPEELKSAGGSAGGS [r12_385_TrROS_Hall] | 1.64 ± 0.075 | 1.22 ± 0.034 | 1.45 ± 0.073
8 | SAGGSAGGSMKITKIEVEENEDGTLTVRLELEFVDPETKETYRVELEITVSKEELEKLLEALKSAGGSAGGS [r12_691_TrROS_Hall] | 3.03 ± 0.12 | 4.09 ± 0.21 | 3.9 ± 0.23
9 | SAGGSAGGSMKITKTEEGVYLVEFTLPDGTPLVIPFPTDDPFLTEEQAVEIAKPIAAAFAAAGSAGGSAGGS [r12_642_TrMRF] | 0.84 ± 0.016 | 1.35 ± 0.038 | 1.22 ± 0.044
10 | SAGGSAGGSMKKLKITFPPGMTEEELKKKIEELAKKLNLEVVKIKSIEYDKENKEVTITVEIKSAGGSAGGS [r12_131_TrROS_Hall] | 4.2 ± 0.17 | 3.77 ± 0.059 | 3.87 ± 0.088
11 | SAGGSAGGSMKRLPDGNLVVKLNNGSTWSVITIPVSPDESEEEIKQRLKELFGPNYPEYDISESAGGSAGGS [r12_300_JUSTAS] | 1.08 ± 0.011 | 0.917 ± 0.09 | 1.04 ± 0.058
12 | SAGGSAGGSMKTVEIELVNKETGKKVTITVNDGKVTIRITNPDGEEKELEFPSLEEALEALLSSAGGSAGGS [r12_511_TrROS_Hall] | 2.45 ± 0.14 | 1.93 ± 0.19 | 2.19 ± 0.2
13 | SAGGSAGGSMKTYTLPNGLRVQLVRVDKKTKTITLKVFDKNGELVEEIEIKVDEPVELLVVYPSAGGSAGGS [r12_960_TrROS_Hall] | 2.09 ± 0.061 | 2.69 ± 0.05 | 2.45 ± 0.15
14 | SAGGSAGGSMKVSPASRSEFDGSRVITITVTKEGTGTTTDITIPFSPDEPDVDEVAKAIAESLSAGGSAGGS [r12_415_JUSTAS] | 0.0886 ± 0.12 | 1.12 ± 0.023 | 0.838 ± 0.091
15 | SAGGSAGGSMKVVKILSIETKAEKDEEVLTIPVLDPANGKVITLTVSPEVAKTITTDDEIELLSAGGSAGGS [r12_382_JUSTAS] | 0.177 ± 0.14 | 0.517 ± 0.12 | 0.47 ± 0.14
16 | SAGGSAGGSMKVVVTAKLPGGEVLQKTIPVDESVLKKMSKEEVIELLKKEGLPENVEIKFEPKSAGGSAGGS [r12_742_JUSTAS] | 1.34 ± 0.067 | 2.17 ± 0.15 | 1.81 ± 0.24
17 | SAGGSAGGSMKYLVTFPEGGPVPLPDGTSVALAPGAVLELETEEEAEALKALNPGRPVVITPVSAGGSAGGS [r12_987_JUSTAS] | 1.51 ± 0.037 | 1.35 ± 0.03 | 1.47 ± 0.05
18 | SAGGSAGGSMKYYKTKDGKIVKAPPIETVKLKLKLEINGKKIEIEIEMSKEEIDKLLKELEKKSAGGSAGGS [r20_148_TrROS_Hall] | 0.717 ± 0.051 | 1.27 ± 0.17 | 1.05 ± 0.13
19 | SAGGSAGGSMLPADTKVIKITVESTLPDGSTTTHTVTVPSSVPLEAVKEQLPPGATITEVVLASAGGSAGGS [r12_597_JUSTAS] | 1.44 ± 0.064 | 0.931 ± 0.011 | 1.16 ± 0.059
20 | SAGGSAGGSMLPLPIESIEVVPRRAPGGKTYYVAFIRLKADGKPLVIEFEADNPGEALEKLEASAGGSAGGS [r20_238_TrMRF] | 1.14 ± 0.046 | 1.46 ± 0.11 | 1.34 ± 0.14
21 | SAGGSAGGSMLTVKITLPNGEKIEIEIEAESEEEAKAAAEKLLEALREAGVSLEDVKVEVVEPSAGGSAGGS [r12_295_TrROS_Hall] | 4.46 ± 0.67 | 2.92 ± 0.11 | 3.66 ± 0.29

Row | Sequence | folding stability dG unfold [1] [kcal/mol] | folding stability dG unfold [2] [kcal/mol] | folding stability dG unfold [3] [kcal/mol]
22 | SAGGSAGGSMNVPPGESVTVTVPPGTGLEWLRAQLPSSRTWDFATFVSENPSPPVTTYEITVGSAGGSAGGS [r12_469_JUSTAS] | 1.16 ± 0.078 | 2 ± 0.077 | 1.76 ± 0.11
23 | SAGGSAGGSMPKKTYEFEIEYEDPEEAVEKAIREFEEETGEKIEEVEVEYDPEKGIVKITLVKSAGGSAGGS [r12_265_JUSTAS] | 0.921 ± 0.066 | 1.44 ± 0.088 | 1.27 ± 0.21
24 | SAGGSAGGSMPKTYSFKVKSKEEIVKLIEELKKLGAKKVEVKELPDGYELYVEVGDSVIKVYSSAGGSAGGS [r12_846_TrMRF] | 1.31 ± 0.065 | 1.1 ± 0.16 | 1.24 ± 0.13
25 | SAGGSAGGSMPPVVLEVKDPESGKVTTLFFFPPTGEALVVPPDGSVFYEPFTSLDELVERLAGSAGGSAGGS [r12_511_TrMRF] | 1.4 ± 0.055 | 1.71 ± 0.051 | 1.57 ± 0.091
26 | SAGGSAGGSMPVITVDPSIKEFKDEKGNKYLLTPVTVTLPNGVPVTVVYTTDPSTGKTTPATSGSAGGSAGG [r6_298_JUSTAS] | 0.671 ± 0.059 | 0.481 ± 0.12 | 0.62 ± 0.1
27 | SAGGSAGGSMPVLVSESPVGTLPDGTKVTRVTYRFPNGEILTETVVEPGPGPPTPENVALTLASAGGSAGGS [r12_775_JUSTAS] | 2.04 ± 0.18 | 1.19 ± 0.23 | 1.6 ± 0.29
28 | SAGGSAGGSMRFPPGQKIEIEEWKHNPNGGNYQVSIRFKDGKKKTFTSPEDIDRLIKAGHVKISAGGSAGGS [r12_455_TrROS] | -0.0362 ± 0.26 | 1.33 ± 0.19 | 0.822 ± 0.21
29 | SAGGSAGGSMRIKFEFKIGDKWVEEEIPADLSQLPLSEIKKKHPKAEYKIEIEDEEGNWTPLLSAGGSAGGS [r12_540_JUSTAS] | 0.262 ± 0.11 | 1.04 ± 0.1 | 0.767 ± 0.12
30 | SAGGSAGGSMRLDLDDIKRVEREPTPNGMRVYEIKLKGHKLPIRYHDNKIEISPEFKDLLKDISAGGSAGGS [r20_92_TrROS] | -0.382 ± 0.19 | -0.483 ± 0.23 | -0.253 ± 0.15
31 | SAGGSAGGSMSEELLAEGPVRIRVRVRNKDGSVEEIEVEAGEEIELPEELKNQDVEIVSIEPVSAGGSAGGS [r12_161_TrROS_Hall] | 0.838 ± 0.058 | 2.15 ± 0.088 | 1.74 ± 0.089
32 | SAGGSAGGSMSPEEAKKLAEELAKKLGLEKVEIVEIKVEVDEETNEIKVTIYIRGKDGKWYKLSAGGSAGGS [r12_508_TrROS_Hall] | 3.48 ± 0.18 | 4.2 ± 0.07 | 3.96 ± 0.074
33 | SAGGSAGGSMSPEEARALAEALAEALGEPDVEVLEVVQTENPAADSTTVTVTIRLPDGSVRVLSAGGSAGGS [r12_508_JUSTAS] | 1.63 ± 0.079 | 1.481 ± 0.014 | 1.63 ± 0.06
34 | SAGGSAGGSMSPSESVTLTVVVEEITPGTPKVLLPEEVKEKYPNFEVQVKVEGKPATVTITRPSAGGSAGGS [r12_900_JUSTAS] | 0.321 ± 0.021 | 0.444 ± 0.017 | 0.385 ± 0.077
35 | SAGGSAGGSMTFSSEEEAEAFIAQLPPDSEVEVEIKDPNTDKTTKYKIKVPPEQPVYSPKGVLSAGGSAGGS [r12_393_JUSTAS] | 0.308 ± 0.11 | 1.5 ± 0.063 | 1.2 ± 0.14
36 | SAGGSAGGSMTILEEEVVPETGLVRILVKLPNGELLELEVDPSVGVTPVKVDGKPIFDVTVDPSAGGSAGGS [r12_789_JUSTAS] | 0.898 ± 0.038 | 1.3 ± 0.082 | 1.19 ± 0.11
37 | SAGGSAGGSMTKTITTKTEEEAESEARRLLKEEGVPEGVEPTPITLESVDPEKGLYTFTVELESAGGSAGGS [r12_999_JUSTAS] | 0.2 ± 0.062 | 0.395 ± 0.099 | 0.379 ± 0.076
38 | SAGGSAGGSMTLIGTTTLPSPDGSLVTVDTYKVPGSDELVAKVTTLNGTTWTTETRPLSEFLKSAGGSAGGS [r12_1063_JUSTAS] | 0.188 ± 0.081 | 0.913 ± 0.14 | 0.646 ± 0.1
39 | SAGGSAGGSMTLKVTLPNGKVIELPLPEELENIPAETIAKLLGEENVRLELYSPDGVPYDFGASAGGSAGGS [r12_411_TrMRF] | 1.18 ± 0.029 | 0.726 ± 0.09 | 1.03 ± 0.099
40 | SAGGSAGGSMTLVLEVDSVEDALAAVEALLPPGYRVTIEVEERGGRLLVTITIEPAPAPPPEESAGGSAGGS [r12_195_TrROS_Hall] | 1.92 ± 0.083 | 3.51 ± 0.075 | 3.16 ± 0.071
41 | SAGGSAGGSMTRTITLSKEELKKKYPNATLEEIAKDIIEKEPGVKEVTVEEFPGTVKITVTKLSAGGSAGGS [r12_590_JUSTAS] | 2 ± 0.086 | 2.84 ± 0.058 | 2.57 ± 0.18
